In US20050282743A1, “Molecular interactions in cells” (Arbor Vita Corporation, priority 2001, published 2005):

Assays:
Experiment in all cases: G' assay
[1] = target: T1, GST-KIAA1719 PDZ domain 6 (Homo sapiens (Human)), Q9C0E4
T1 chain: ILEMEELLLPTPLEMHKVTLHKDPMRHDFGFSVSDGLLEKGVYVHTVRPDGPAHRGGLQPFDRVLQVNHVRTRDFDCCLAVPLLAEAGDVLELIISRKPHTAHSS

[2] = target: T2, GST-MUPP1 PDZ domain 12 (Homo sapiens (Human)), O75970
T2 chain: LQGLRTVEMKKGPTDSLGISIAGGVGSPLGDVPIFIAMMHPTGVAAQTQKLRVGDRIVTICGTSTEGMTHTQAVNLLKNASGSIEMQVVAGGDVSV

[3] = target: T3, GST-AF6 PDZ domain 1 (Homo sapiens (Human)), P55196
T3 chain: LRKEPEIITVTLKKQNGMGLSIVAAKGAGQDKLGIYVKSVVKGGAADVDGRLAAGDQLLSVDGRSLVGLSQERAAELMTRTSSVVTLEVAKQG

[4] = target: T4, GST-PDZ-73 PDZ domain 2 (Homo sapiens (Human)), Q9Y6N9
T4 chain: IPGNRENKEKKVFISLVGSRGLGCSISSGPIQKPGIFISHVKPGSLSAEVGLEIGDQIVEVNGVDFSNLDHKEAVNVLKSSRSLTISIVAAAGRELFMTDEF

[5] = target: T5, GST-PSD95 PDZ domain 2 (Homo sapiens)
T5 chain: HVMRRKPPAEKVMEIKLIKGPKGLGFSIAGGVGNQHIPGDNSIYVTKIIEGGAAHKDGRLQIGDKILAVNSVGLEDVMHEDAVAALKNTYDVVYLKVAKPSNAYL

[6] = target: T6, GST-KIAA1415 PDZ domain 1 (Homo sapiens (Human)), Q8TCU6
T6 chain: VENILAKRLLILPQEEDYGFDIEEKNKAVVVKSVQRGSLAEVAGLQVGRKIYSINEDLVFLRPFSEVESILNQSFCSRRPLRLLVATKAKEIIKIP

[7] = target: T7, GST-PDZK1 PDZ domain 1 (Homo sapiens (Human)), Q5T2W1
T7 chain: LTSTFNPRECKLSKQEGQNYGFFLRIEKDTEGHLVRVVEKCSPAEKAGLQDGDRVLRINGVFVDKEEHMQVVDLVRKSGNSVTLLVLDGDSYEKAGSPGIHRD

[8] = target: T8, GST-AIPC PDZ domain 4 (Homo sapiens (Human)), O15018
T8 chain: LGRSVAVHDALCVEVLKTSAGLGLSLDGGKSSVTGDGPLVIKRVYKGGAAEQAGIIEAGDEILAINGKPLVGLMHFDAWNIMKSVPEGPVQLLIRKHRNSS

[9] = target: T9, GST-GRIP 1 PDZ domain 6 (Mus musculus (Mouse)), Q925T6
T9 chain: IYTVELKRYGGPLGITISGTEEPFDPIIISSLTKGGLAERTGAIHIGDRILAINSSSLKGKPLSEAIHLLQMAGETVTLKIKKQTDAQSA

[10] = target: T10, GST-PDZK1 PDZ domain 3 (Homo sapiens (Human)), A8MUH7
T10 chain: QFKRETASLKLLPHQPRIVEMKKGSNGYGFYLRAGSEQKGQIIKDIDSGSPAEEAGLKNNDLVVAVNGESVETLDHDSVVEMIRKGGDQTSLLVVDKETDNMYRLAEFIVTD

[11] = target: T11, GST-SIP1 PDZ domain 2 (Homo sapiens (Human)), Q15599
T11 chain: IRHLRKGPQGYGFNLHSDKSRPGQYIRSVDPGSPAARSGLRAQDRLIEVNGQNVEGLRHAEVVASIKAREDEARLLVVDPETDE

[12] = target: T12, GST-KIAA1719 PDZ domain 5 (Homo sapiens (Human)), Q9C0E4
T12 chain: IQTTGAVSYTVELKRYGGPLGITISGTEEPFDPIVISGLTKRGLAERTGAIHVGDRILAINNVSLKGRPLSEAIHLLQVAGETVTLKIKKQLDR

[13] = target: T13, GST-KIAA1719 PDZ domain 1 (Homo sapiens (Human)), Q9C0E4
T13 chain: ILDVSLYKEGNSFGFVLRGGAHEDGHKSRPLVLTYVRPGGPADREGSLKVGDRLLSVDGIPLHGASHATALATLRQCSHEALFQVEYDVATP

[14] = target: T14, GST-SYNTENIN PDZ domain 2 (Homo sapiens (Human)), O00560
T14 chain: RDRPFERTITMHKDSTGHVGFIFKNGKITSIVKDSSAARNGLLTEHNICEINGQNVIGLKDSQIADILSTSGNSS

[15] = target: T15, GST-INADL PDZ domain 4 (Homo sapiens (Human)), Q8NI35
T15 chain: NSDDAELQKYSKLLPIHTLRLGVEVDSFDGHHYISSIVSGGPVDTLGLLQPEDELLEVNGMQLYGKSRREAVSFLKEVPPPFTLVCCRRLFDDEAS

[16] = target: T16, GST-FLJ21687 PDZ domain 1 (Homo sapiens (Human)), Q9H6Y5
T16 chain: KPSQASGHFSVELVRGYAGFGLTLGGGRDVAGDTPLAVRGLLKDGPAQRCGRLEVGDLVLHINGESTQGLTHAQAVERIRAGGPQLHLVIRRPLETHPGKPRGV

[17] = target: T17, GST-KIAA1719 PDZ domain 4 (Homo sapiens (Human)), Q9C0E4
T17 chain: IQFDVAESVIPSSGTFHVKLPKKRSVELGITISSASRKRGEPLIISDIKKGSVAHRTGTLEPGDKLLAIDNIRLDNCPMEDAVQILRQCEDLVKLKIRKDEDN

[18] = target: T18, GST-KIAA0751(L) PDZ domain 1 (Mus musculus (Mouse)), Q9EQZ7
T18 chain: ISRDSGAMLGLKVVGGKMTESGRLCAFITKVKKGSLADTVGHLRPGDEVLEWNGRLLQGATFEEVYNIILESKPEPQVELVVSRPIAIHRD
Further: key of the grades not given here.

B1: CSPG4 (chondroitin sulfae proteoglycan 4, melanoma-associated) (peptide)
peptide: ELLQFCRTPNPALKNGQYWV
modifications: not checked
Classification [1]: 5 A450 class | Classification [2]: 1 A450 class | Classification [3]: 5 A450 class

B2: KIA 1481 (peptide)
peptide: PIPAGGCTFSGIFPTLTSPL
modifications: not checked
Classification [4]: 1 A450 class

B3: TAX (peptide)
peptide: QISPGGLEPPSEKHFRETEV
modifications: not checked
Classification [5]: 1 A450 class

B4: ephrin B2 (peptide)
peptide: ILNSIQVMRAQMNQIQSVEV
modifications: not checked
Classification [6]: 1 A450 class | Classification [7]: 1 A450 class | Classification [8]: 1 A450 class | Classification [9]: 3 A450 class | Classification [10]: 1 A450 class | Classification [11]: 2 A450 class | Classification [12]: 4 A450 class | Classification [13]: 1 A450 class | Classification [14]: 2 A450 class

B5: alpha-2A Adrenergic receptor (peptide)
peptide: HDFRRAFKKILARGDRKRIV
modifications: not checked
Classification [15]: 1 A450 class | Classification [16]: 1 A450 class | Classification [17]: 3 A450 class | Classification [18]: 3 A450 class
